Read-outs that look alike come from different tables or passages of the source.
Columns and labels:
[1] = target: HLA-A*6802 (human); test: inhibition of 125I probe peptide binding to purified HLA, gel filtration; ratio = IC50 standard/IC50 test
[2] = target: HLA-A*0202 (human); test: as above
[3] = target: HLA-A*0206 (human); test: as above
[4] = target: HLA-A*0201 (human); test: as above
[5] = target: HLA-A*6802 (human); test: competition with 125I-labeled probe peptide for purified HLA, gel filtration
[6] = target: HLA-A*0202 (human); test: as above
[7] = target: HLA-A*0206 (human); test: as above
[8] = target: HLA-A*0201 (human); test: as above
[9] = target: HLA-A*0203 (human); test: as above
[10] = target: HLA-A*6802 (human); test: competitive inhibition of 125I-labelled standard peptide binding to purified HLA
[11] = target: HLA-A*0202 (human); test: as above
[12] = target: HLA-A*0206 (human); test: as above
[13] = target: HLA-A*0203 (human); test: as above
[14] = target: HLA-A*0201 (human); test: as above
[15] = target: HLA-A*0206 (human); test: competition for purified HLA with 125I-labelled standard peptide 941.01 [..] as competitor, gel filtration; details: scale: ratio
[16] = target: HLA-A*0201 (human); test: as above; details: scale: ratio
[17] = target: HLA-A*0203 (human); test: as above; details: scale: ratio
[18] = target: HLA-A*0202 (human); test: as above; details: scale: ratio
[19] = target: HLA-A*0202 (purified HLA class I molecule) (human); test: competition with 125I-labelled standard peptide for purified HLA, gel filtration
[20] = target: HLA-A*0206 (purified HLA class I molecule) (human); test: as above
[21] = target: HLA-A*0201 (purified HLA class I molecule) (human); test: as above
[22] = target: HLA-A*0202 (human); test: competition with 125I-labelled standard peptide for purified HLA, gel filtration; ratio = IC50 standard / IC50 test peptide; details: remark: other sources report otherwise
[23] = target: HLA-A*0206 (human); test: as above; details: remark: other sources report otherwise
[24] = target: HLA-A*0201 (human); test: as above; details: remark: other sources report otherwise
[25] = target: HLA-A*0203 (human); test: as above; details: remark: other sources report otherwise
[26] = remark: other sources report otherwise

Binder: ALPEKPAVYT (modifications not checked) [… (Kallikrein, position 235)]
- binding affinity ratio [1]: -0.0001
- binding affinity ratio [2]: 0.005
- binding affinity ratio [3]: 0.0005
- binding affinity ratio [4]: 0.0003

Binder: ATFDIESKV (modifications not checked) [Peptide 1418.30 … (PSM.711.T2)]
- IC50 [5]: 258 nM
- IC50 [6]: 27 nM
- IC50 [7]: 82 nM
- IC50 [8]: 238 nM
- IC50 [9]: 44 nM

Binder: TLSVTWIGV (modifications not checked) [Peptide 60.0217, … (PSA.5.V9)]
- IC50 [10, 26]: 229 nM
- IC50 [11, 26]: 4.9 nM
- IC50 [12, 26]: 712 nM
- IC50 [13, 26]: 40 nM

Binder: LMLLRLSEPA (modifications not checked) [Peptide 63.0014, … (PSA.117)]
- IC50 [10, 26]: 5000 nM
- IC50 [14, 26]: 200 nM

Binder: LVCNGVLQGV (modifications not checked) [Peptide 1418.55, … (PSA.213.V10)]
- IC50 [10]: 3.5 nM
- IC50 [11]: 2.9 nM
- IC50 [12]: 5.6 nM
- IC50 [14]: 10 nM
- IC50 [13]: 12 nM

Binder: HLLSNDMCA (modifications not checked) [… (Kallikrein position 177, 9-mer)]
- binding affinity ratio [15]: 0.0009
- binding affinity ratio [16]: 0.002
- binding affinity ratio [17]: 0.0005

Binder: IALSVGCT (modifications not checked) [IALSVGCT (Kallikrein position 8, 8-mer)]
- binding affinity ratio [18]: -0.0002
- binding affinity ratio [15]: -0.0001
- binding affinity ratio [16]: 0.0001
- binding affinity ratio [17]: -0.0001

Binder: IALSVGCTGAV (modifications not checked) [… (Kallikrein position 8, 11-mer)]
- binding affinity ratio [18, 26]: 0.0032
- binding affinity ratio [15, 26]: 0.01
- binding affinity ratio [16, 26]: 0.0009
- binding affinity ratio [17, 26]: 0.027

Binder: LVLAGGFFL (modifications not checked) [PSM peptide … (position 26, 9 amino acids)]
- binding affinity ratio (IC50 of standard peptide / IC50 of test peptide) [19, 26]: 0.003

Binder: MLCAGLWT (modifications not checked) [Kallikrein (hK2) peptide MLCAGLWT (position 196, 8 amino acids)]
- binding affinity ratio (IC50 of standard peptide / IC50 of test peptide) [19]: 0.002
- binding affinity ratio (IC50 of standard peptide / IC50 of test peptide) [20]: 0.0001

Binder: NLFEPEDT (modifications not checked) [Kallikrein (hK2) peptide NLFEPEDT (position 79, 8 amino acids)]
- binding affinity ratio (IC50 of standard peptide / IC50 of test peptide) [21]: 0.0002
- binding affinity ratio (IC50 of standard peptide / IC50 of test peptide) [20]: -0.0001

Binder: AAHCLKKNSQV (modifications not checked) [… (Kallikrein, position 63)]
- binding affinity ratio [2, 26]: 0.0006
- binding affinity ratio [3, 26]: 0.0001
- binding affinity ratio [4, 26]: 0.0003

Binder: PTQEPALGTT (modifications not checked) [Kallikrein (hK2) peptide …, position 142, 10 amino acids]
- binding affinity ratio (ratio to standard peptide) [22]: 0.022
- binding affinity ratio (ratio to standard peptide) [23]: 0.0037
- binding affinity ratio (ratio to standard peptide) [24]: 0.0084
- binding affinity ratio (ratio to standard peptide) [25]: 0.052

Binder: PTQEPALGTT (modifications not checked) [PSA peptide …, position 138, 10 amino acids]
- binding affinity ratio (ratio to standard peptide) [22]: 0.022
- binding affinity ratio (ratio to standard peptide) [23]: 0.0037
- binding affinity ratio (ratio to standard peptide) [24]: 0.0084
- binding affinity ratio (ratio to standard peptide) [25]: 0.052

Binder: ALPEKPAV (modifications not checked) [ALPEKPAV (Kallikrein, position 235)]
- binding affinity ratio [1, 26]: -0.0001
- binding affinity ratio [2, 26]: 0.02
- binding affinity ratio [3, 26]: 0.0001
- binding affinity ratio [4, 26]: 0.0009
